One experiment addresses T1, MICA005α3-Fc (human).
T1 construct: also called MICA*005-Fc; domain α3 of MICA-005 Fc fusion protein
The experiment can be described thus: ELISA on coated MICA*005 α3-Fc (1 µg/ml), HRP anti-human Fab secondary, OD450. The method, then:
(§1) After the antibodies were added, signal intensity was used for judging the binding characteristics of the antibodies and MICA and MICB.
(§2) The fusion proteins (produced in the Applicant's laboratory; an amino acid sequence of MICA002α3-Fc is as set forth in SEQ ID NO: 22; an amino acid sequence of MICA005α3-Fc is as set forth in SEQ ID NO: 24; an amino acid sequence of MICA008α3-Fc is as set forth in SEQ ID NO: 25; an amino acid sequence of MICA004α3-Fc is as set forth in SEQ ID NO: 23; an amino acid sequence of MICB001α3-Fc is as set forth in SEQ ID NO: 26; and an amino acid sequence of MICB005α3-Fc is as set forth in SEQ ID NO: 27) were diluted to a concentration of 1 μg/ml with PBS and then added into a 96-well plate in a volume of 100 μl/well. The plate was placed at 4° C. overnight. The PBS in the 96-well plate was removed by sucking. After the plate was washed with PBST (that is, PBS having a pH value of 7.2 included 0.1 volume % of Tween 20) for 6 times, PBS containing 10% of BSA was added in a volume of 200 μl/well. The plate was incubated at 37° C. for 2 hours for blocking. The blocking solution was removed. […]

For a further experiment, the target named is T2, MICA008α3-Fc (human).
T2 construct: also called MICA*008-Fc; domain α3 of MICA-008 Fc fusion protein
The experiment can be described thus: ELISA on coated MICA*008 α3-Fc (1 µg/ml), HRP anti-human Fab secondary, OD450. The method, then: as §1, §2
On the technique in general: An ELISA detects its analyte on a solid surface through an enzyme-linked reagent.

The next experiment has as its target T3, MICB001α3-Fc.
T3 construct: also called MICB*001-Fc; domain α3 of MICB-001 Fc fusion protein
Kind of experiment: ELISA on coated MICB*001 α3-Fc (1 µg/ml), HRP anti-human Fab secondary, OD450.

The target of a further experiment is T4, MICB005α3-Fc.
T4 construct: also called MICB*005-Fc; domain α3 of MICB-005 Fc fusion protein
The experiment can be described thus: ELISA on coated MICB*005 α3-Fc (1 µg/ml), HRP anti-human Fab secondary, OD450.

The target of experiment [1] is T5, MICA on human tumor cells (A-375, A549, HCT-15, MDA-MB-231) (human, UniProt Q29983 24-383).
T5 construct: whole, on cells
T5 sequence (looked up): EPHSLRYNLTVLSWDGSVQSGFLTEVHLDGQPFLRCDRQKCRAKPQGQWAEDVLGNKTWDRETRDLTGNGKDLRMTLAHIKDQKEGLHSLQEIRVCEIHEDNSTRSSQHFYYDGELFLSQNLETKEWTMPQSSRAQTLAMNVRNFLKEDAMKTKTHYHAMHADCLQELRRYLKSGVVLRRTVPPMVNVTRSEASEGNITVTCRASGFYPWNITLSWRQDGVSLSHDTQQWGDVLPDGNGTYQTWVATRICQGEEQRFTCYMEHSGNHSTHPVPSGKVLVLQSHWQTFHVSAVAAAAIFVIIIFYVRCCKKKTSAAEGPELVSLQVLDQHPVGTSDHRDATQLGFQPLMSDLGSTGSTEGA
Kind of experiment: flow cytometry on A-549 cells, Alexa-647 goat anti-human secondary, % binding ratio. The method, then:
(§3) (2) Tumor cells were diluted to a density of 2×10⁶/mL with PBS and added into a 1.5 ml EP tube in a volume of 100 l/tube. 10 l/tube of goat serum was added into the EP tube; and blocking was conducted at 4° C. for 30 min. […] The tube was incubated at 4° C. for 30 min. 1 mL of PBS was added into the EP tube, and centrifugation was conducted 4° C. at a rate of 3,500 rpm for 5 min. The supernatant was removed. Then, the EP tube was washed once with the PBS, and the supernatant was removed after centrifugation. The cells were resuspended with PBS in a volume of 100 l/tube. An Alexa-647 labeled goat anti-human secondary antibody (purchased from Jackson lab) was added into the tube in a volume of 1 l/tube, and the tube was incubated in the dark at 4° C. for 30 min. The tube was washed twice with PBS, and the supernatant was removed after centrifugation. The cells were resuspended with the PBS in a volume of 200 l/tube, and detection was conducted by a flow cytometer. The results are as shown in FIG. 17A and FIG. 17B, FIG. 18A and FIG. 18B, FIG. 19A and FIG. 19B, and FIG. 20A and FIG. 20B.
(A flow cytometer gives signals particle by particle.)

The target in experiment [2] is T5, MICA on human tumor cells (A-375, A549, …). The experiment can be described thus: flow cytometry on MDA-MB-231 cells, Alexa-647 goat anti-human secondary, % binding ratio. The method, then: as §3

The text below walks through data of patent US20240368285A1 (HEFEI TG IMMUNOPHARMA, published 2024).

T3 sequence (chain, as listed by the source limits assumed): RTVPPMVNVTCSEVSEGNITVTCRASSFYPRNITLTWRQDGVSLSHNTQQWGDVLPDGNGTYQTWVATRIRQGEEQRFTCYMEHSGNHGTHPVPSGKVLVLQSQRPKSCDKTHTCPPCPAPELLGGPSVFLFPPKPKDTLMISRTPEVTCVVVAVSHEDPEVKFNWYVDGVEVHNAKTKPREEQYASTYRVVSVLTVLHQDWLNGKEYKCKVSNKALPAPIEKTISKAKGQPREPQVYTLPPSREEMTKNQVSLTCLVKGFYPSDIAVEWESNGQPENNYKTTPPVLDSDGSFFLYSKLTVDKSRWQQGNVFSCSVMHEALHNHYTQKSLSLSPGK
T2 sequence (chain, as listed by the source limits assumed): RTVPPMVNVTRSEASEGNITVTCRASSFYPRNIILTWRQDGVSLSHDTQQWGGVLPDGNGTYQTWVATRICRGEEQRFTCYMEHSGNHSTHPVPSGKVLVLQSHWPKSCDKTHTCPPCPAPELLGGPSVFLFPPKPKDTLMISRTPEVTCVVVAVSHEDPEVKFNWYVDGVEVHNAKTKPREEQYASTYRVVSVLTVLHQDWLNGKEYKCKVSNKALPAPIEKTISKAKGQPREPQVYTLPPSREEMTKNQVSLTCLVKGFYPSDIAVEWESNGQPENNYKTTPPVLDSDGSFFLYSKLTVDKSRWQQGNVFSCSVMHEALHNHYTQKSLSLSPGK
T4 sequence (chain, as listed by the source limits assumed): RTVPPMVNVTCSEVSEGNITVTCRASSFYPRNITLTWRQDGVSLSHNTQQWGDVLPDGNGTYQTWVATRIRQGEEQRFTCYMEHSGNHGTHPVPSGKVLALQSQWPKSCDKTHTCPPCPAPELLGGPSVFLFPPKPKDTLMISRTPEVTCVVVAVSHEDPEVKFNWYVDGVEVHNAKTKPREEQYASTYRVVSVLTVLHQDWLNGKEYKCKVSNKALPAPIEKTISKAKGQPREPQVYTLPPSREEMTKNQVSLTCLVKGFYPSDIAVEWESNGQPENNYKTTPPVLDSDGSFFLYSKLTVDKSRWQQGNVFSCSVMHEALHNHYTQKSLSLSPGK
T1 sequence (chain, as listed by the source limits assumed): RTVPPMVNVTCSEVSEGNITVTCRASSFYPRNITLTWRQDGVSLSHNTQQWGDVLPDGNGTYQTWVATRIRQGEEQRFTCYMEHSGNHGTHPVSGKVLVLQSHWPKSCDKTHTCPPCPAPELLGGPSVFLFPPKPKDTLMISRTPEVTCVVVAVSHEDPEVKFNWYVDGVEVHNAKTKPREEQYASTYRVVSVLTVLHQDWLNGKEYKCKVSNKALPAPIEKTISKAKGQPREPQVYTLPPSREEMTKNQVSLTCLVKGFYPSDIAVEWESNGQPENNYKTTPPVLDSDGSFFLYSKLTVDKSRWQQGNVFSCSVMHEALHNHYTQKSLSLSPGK

B1: affinity maturation antibody h5A1002 (antibody, V domains shown)
VH: QVQLQESGPGLVKPSETLSLTCTVSGFSLTTYGGHWIRQPPGKGLEWIGMIWTDGWTDYNAAFISRVTISVDTSKNQFSLKLSSVTAADTAVYYCARKGHGYYYAMDYWGQGTLVTVSS
VL: EIVLTQSPGTLSLSPGERATLSCTASSSVSSSYLHWYQQKPGQAPRLLIYSTSNLISGIPDRFSGSGSGTDFTLTISRLEPEDFAVYYCHQYHRSPFTFGQGTKLEIKR
notes: Human IgG1, kappa; also called h5A1002-hIgG1
Turning to B1, the “EC50 (read off the curve)” value is ~0.07 µg/mL with MICA005α3-Fc; ~0.08 µg/mL with MICA008α3-Fc; ~0.03 µg/mL with MICB001α3-Fc; ~0.04 µg/mL with MICB005α3-Fc; ~0.4 µg/mL in experiment [1]; ~0.3 µg/mL in experiment [2].

By EC50 (read off the curve) is commonly meant the concentration that produces a half-maximal response.
